Results on 41 sequences are retold here after the nanobody polyreactivity screen of Harvey et al. (2022).

A short description of the data set: yeast display, Sf9 membrane polyspecificity reagent, FACS + sequencing; frameworks hold sequencing errors. Put shortly: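 Sorting gates, low and high (top ~1%), were placed on anti-HA fluorescence to track expression and on streptavidin fluorescence to track reagent binding. A clone's polyreactivity label is taken from the gate it came out of. The reagent was 10% biotinylated, detergent-solubilized Sf9 membrane, applied for 1 hour at 4 °C to galactose-induced yeast display cells.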
Regarding “QVQLVESGGGLVQAGGSLRLSCAASGSTFDIYAMGWYRQAPGNERELVAAISVSGGSTYYADSVKGRFTIARDNAKNTVDLQMNSLKPEDTAVYYCAAEAYTRFYQQFDYWGQGTQVTVSS”, the “polyreactivity (PSR sort gate)” value was “high polyreactivity”. For the sequence “QVQLVESGGGLVQAGGSLRLSCAASGSTFDKKAMGWYRQAPGKERELVAAITWRGGRTYYADSVKGRFTISRDNAKNTVYLQLNSLKPEDTAVYYCNKVSWEQMDYWGQGTQVTVSS”, the “polyreactivity (PSR sort gate)” value is “low polyreactivity”. In the case of “QVQLVESGGGLVQAGGSLRLSCAASGSTFDKNAMGWYRQAPGKERELVDAISIGVSTNYADSVKGRFTISRDNAKNTVYLQMNSLKPEDTAVYYCAADLFFGAETVYYDKFDYWGQGTQVTVSS”, the “polyreactivity (PSR sort gate)” value is given as “low polyreactivity”. The same measure for “QVQLVESGGGLVQAGGSLRLSCAASGSTFDNYAMGWNRQAPGKERELVADITWSGGSTYYADSVKGRFTSSRDNAKNTVYLQMNSLKPEDSAVYYCNSAGYYTKYDYWGQGTQVTVSS”: “low polyreactivity”. The same measure for “QVQLVESGGGLVQAGGSLRLSCAASGSTFDPNAMGWYRHAPGKERELVAAIDSGGSSYYADSVKGRFTISRDNAKYTVYLQMNSLKPEDTAVYYCASNIVGRSPYDSNYDFEYWGQGTQVTVSS”: “low polyreactivity”; for “QVQLVESGGGLVQAGGSLRLSCAASGSTFDPNAMGWYRQAPGKERELVAVIDSGDGTTNYADSVKGRFTISRDNAKNTVYLQMNSLKPEDTAVYYCNKDTLVYGYVQDYEYWGQGTQVTVSS”: “low polyreactivity”.

Turning to “QVQLVESGGGLVQAGGSLRLSCAASGSTFDPNAMGWYRQAPGKETELVAAIDSGGSTYYADSVKGRFTISRDNAKNTVYLQMNSLKPEDTAVYYCATKQPTWVPRVIISYTKFDYWGQGTQVTVSS”, the “polyreactivity (PSR sort gate)” value was “low polyreactivity”. With “QVQLVESGGGLVQAGGSLRLSCAASGSTFDPYAMGCYRQAAGKEREFVAYIDSSVGSTFYADSVKGRFTISRDNAKNTVYLQMNSLKPEDTAVYYCAAASRVAKGRWRLYDYWGQGTQVTVSS” the entry was “high polyreactivity”. On to “QVQLVESGGGLVQAGGSLRLSCAASGSTFDPYGMGWYRQAPGKERELVAAITSSGRTNYADSVKGRFTISRDNAKNTVYLQMKSLKPEDTAVYYCATRKERYFYRGYEYWGQGTQVTVSS”, for which the “polyreactivity (PSR sort gate)” value was “low polyreactivity”. As for “QVQLVESGGGLVQAGGSLRLSCAASGSTFDQNTMGWYREAPGKERELVASITGGDSTNYADSVKGRFTISRDNAKNTVYLQMNSLKPEDTAVYYCAADKLYQPGIGDDYWGQGTQVTVSS”, the “polyreactivity (PSR sort gate)” value is reported as “low polyreactivity”. Take “QVQLVESGGGLVQAGGSLRLSCAASGSTFDSNAMGWYRQAPGKERELVAAIRFSGGSTNYADSVKGRFTISRDKAKNTVYLQINSLKPEDTAVYYCAARYPNLRSRWYYYWGQGPQVTVSS”: the “polyreactivity (PSR sort gate)” value is “high polyreactivity”. As to “QVQLVESGGGLVQAGGSLRLSCAASGSTFDSYAMGWSRQAPGKERELVARINDSGGSTYYADSVKGRFTISRDNAKNTVYLHMNSLKPEDTAVYYCNAYSWYFLPNMDYWGQGTQVTVSS”, the “polyreactivity (PSR sort gate)” value is “low polyreactivity”. Take “QVQLVESGGGLVQAGGSLRLSCAASGSTFDSYAMGWYRQAPGKERELVAAISSGGSTNYADSVKGRFTISRDNAKNTVYLQMNSLKPEDTAVYYCAAYGGHIWWLYRHYGYDYWGQGTQVTVSS”: the “polyreactivity (PSR sort gate)” value was “low polyreactivity”. “QVQLVESGGGLVQAGGSLRLSCAASGSTFDSYAMGWYRQAPGKERELVAAITNGGSTYYADSVKGRFTISRDNAKNTVYLQMNSLKPEDTAVYYCATDDYLLDYLYDYWGQGTQVTVSS”: the “polyreactivity (PSR sort gate)” value is on record as “low polyreactivity”. For the sequence “QVQLVESGGGLVQAGGSLRLSCAASGSTFDSYAMGWYRQAPGKERELVAVINSGGSTNYADSVKGRFTISRDNAKNTVYLLMNSLKPEDTAVYYCSAEERYRWHVVGWGYWYDYWGQGTQVTVSS”, the “polyreactivity (PSR sort gate)” value is given as “low polyreactivity”. Take “QVQLVESGGGLVQAGGSLRLSCAASGSTFDSYAMGWYSQAPGKERELVAAITYSGGRTYYADSVKGRFTISRDNAKNTVYLQMNSLKPEDTAVYYCAATGVFRDEYWGQGTQVTVSS”: the “polyreactivity (PSR sort gate)” value is listed as “low polyreactivity”.

Turning to “QVQLVESGGGLVQAGGSLRLSCAASGSTFDSYARVWYRQAPGKETELVARISIVGSTNYADSVKGRFTISRANAKNTVYLQMNCLKPDDTAVYYCAADRDWQYSFRHSVYGYDYDYWGQGTLVTVSS”, the “polyreactivity (PSR sort gate)” value is “low polyreactivity”.

On to “QVQLVESGGGLVQAGGSLRLSCAASGSTFDTNAMGWYRQAPGKERELVAAISASGGSTYYADSVKGRFTISRDNAKNTVYLQMNSLKPEDTAVYDCAAKTRGQQRKFDYWGQGSQVTVSS”, for which the “polyreactivity (PSR sort gate)” value is “high polyreactivity”. With “QVQLVESGGGLVQAGGSLRLSCAASGSTFDTNTMGWYIQAPGKERELVAAITSSGTSTSYADSVKGRFTISRDNAKNTVYLQMNSLKPEDTAVYYCAALRPGGGDYSDYDYWGQGTQVSVSS” the entry was “low polyreactivity”; with “QVQLVESGGGLVQAGGSLRLSCAASGSTFDTYAMGWYRQAPGKEREFVATITGSGGSTYYADSVKVRFTITRDNAKNTVYLQMNSLKPEDTAVYYCNAETYIDLRGKFPVEYDYWGQGTQVTVSS”, “low polyreactivity”; with “QVQLVESGGGLVQAGGSLRLSCAASGSTFDTYAMGWYRQAPGKERELVAAISRSGTSTYYADSVKGRFTISRDNAKNTVYLQMISLKPEDTAVYYCDKDAGLQKYHHDYWGQGTQVTVSS”, “low polyreactivity”.

On to “QVQLVESGGGLVQAGGSLRLSCAASGSTFDTYAMGWYRQAPGKERELVAAISRSGTSTYYADSVKGRFTISRDNAKNTVYLQMKSLKPEDTAVYYCAAYGPRVNGEIGREYYYWGQGTQVTVSS”, for which the “polyreactivity (PSR sort gate)” value is listed as “low polyreactivity”. On to “QVQLVESGGGLVQAGGSLRLSCAASGSTFDVNAMGSYRQAPGKERELVAAISWNSGSTYYADSVKGRFTISRDNAKNTVYLQMNSLKPEDTAVYYCAATYGTGRRSKYGYWGQGTQVTVSS”, for which the “polyreactivity (PSR sort gate)” value is “high polyreactivity”. On to “QVQLVESGGGLVQAGGSLRLSCAASGSTFDVNTMGWYRQAPGTERELVAAIRLRGGSTYYADSVKGRFTISRDNAKNTVYLQMNSLKPEDTAVYYCAADYTLIYDYWGQGTQVTVSS”, for which the “polyreactivity (PSR sort gate)” value is listed as “low polyreactivity”.

For the sequence “QVQLVESGGGLVQAGGSLRLSCAASGSTFDVYVMGWYRQAPGKERELVAAISSGDDTNYADSVKGRFTISRDNAKNTVYLQMNSLKPEDTAVYYCAAAYYYYVSGWFDYWGQGTQVTVSS”, the “polyreactivity (PSR sort gate)” value is on record as “low polyreactivity”. With “QVQLVESGGGLVQAGGSLRLSCAASGSTFDWYAMGWYRQAPGKDRELVAAISSDDSTYYADSVKGRFTISRDNAKNTVYLQMNSLIPEDTAVYYCAVDVYSDYGDYGYWGQGTQVTVSS” the entry was “low polyreactivity”; with “QVQLVESGGGLVQAGGSLRLSCAASGSTFDYNAMGWYRQAPGKERELVAAISSGSRTNYADSVKGRFTISRDNAKNTVYLQMNSLKPEDTAVYYCAAKAYFYRRTQSRFSLYYYWGQGTQVTVSS”, “high polyreactivity”; with “QVQLVESGGGLVQAGGSLRLSCAASGSTFDYNTMGWYRQAPGKERELVAAISESGGSTYYADSVKGRFTISRDNAKNTVYLQMNSLKPEDTAVSYCATDDFGGYFGEYDYWGQGTQVTVSS”, “low polyreactivity”.

“QVQLVESGGGLVQAGGSLRLSCAASGSTFDYYAMGWSRQAPGKERELVAGITGGGSTYYADSVKGRFTISRDNAKNTVYLQMNSLKPEDTAVYYCNAGPALRYDYWGQGTQVTVSS”: the “polyreactivity (PSR sort gate)” value is recorded as “low polyreactivity”. Turning to “QVQLVESGGGLVQAGGSLRLSCAASGSTFDYYAMGWYRQAPAKERELVAVISRSGGSTYYADSVKGRFTISRDNAKNTVYLQMNSLKPEDTAVYYCAKSRPSKYDYWGQGTQVTVSS”, the “polyreactivity (PSR sort gate)” value is listed as “high polyreactivity”. As to “QVQLVESGGGLVQAGGSLRLSCAASGSTFDYYAMGWYRQAPGKERELVAAISRTGGRTYYADSVKGRFTISRDNEKNSVYLQMHSLKPEESAVYYCNSVTRIGGGDYDYWGQGTQVTVSS”, the “polyreactivity (PSR sort gate)” value is “low polyreactivity”. With “QVQLVESGGGLVQAGGSLRLSCAASGSTFDYYAMGWYRQAPGKERELVAAISSSGSRTHYADSVKGRFTISRDNAKNTVYLQMNSLKPEDTAVYYCATYTKYWRYPYDYWGQGTQVTVSS” the entry was “high polyreactivity”.

In the case of “QVQLVESGGGLVQAGGSLRLSCAASGSTFDYYAMGWYRQAPGKERELVAAISSSGSSTYYADSVKGLFTISRDNAKNTVYLQMNSLKPEDTAVYYCAKGTNYRDDYWGQGTQVTVSS”, the “polyreactivity (PSR sort gate)” value is reported as “low polyreactivity”.

Consider “QVQLVESGGGLVQAGGSLRLSCAASGSTFDYYAMGWYRQAPGKERELVAAITGTGGSTYYADSVKGRFTISRDNAKNTVYLQMNSLKPEDTAVYYCAADTYLGWSYYWGQGTQVTVSS”, for which the “polyreactivity (PSR sort gate)” value is given as “high polyreactivity”. Turning to “QVQLVESGGGLVQAGGSLRLSCAASGSTFDYYDMGWYRQAPGKERELVAAINWSGGSTYYADSVKGRFTISRDNAKNTVYLQMNSLKPEDTAVYYCAADLSSRGISQDDYWGQGTQVTVSS”, the “polyreactivity (PSR sort gate)” value is listed as “high polyreactivity”.

As to “QVQLVESGGGLVQAGGSLRLSCAASGSTFDYYPMGWYRQAPGKERELVAAITYSGGRTSYADSVKGRFTISRDNAKNTVYLQMNSLKPEDTAVYYCAAVYDGQYYASYSTYDYDYWGQGTQVTVSS”, the “polyreactivity (PSR sort gate)” value is “low polyreactivity”.

Turning to “QVQLVESGGGLVQAGGSLRLSCAASGSTFEDNTMGWYRQAPGKERELVAAISNSGGSTYYADSVKGRFTISRDNAKNTVYLQMNSLKPEDTAVYYCAADFYDPFDYWGQGTQVTVSS”, the “polyreactivity (PSR sort gate)” value was “low polyreactivity”. With “QVQLVESGGGLVQAGGSLRLSCAASGSTFEDYAMGWYRQAPGKERELVAVITGNGGSTNYADSVKGRFTISRDNAKNTVYLQMNSLKPEDTAVYYCAADFYTFVRSDYWGQGTQVTVSS” the entry was “low polyreactivity”; with “QVQLVESGGGLVQAGGSLRLSCAASGSTFEFYAMGWYRQAPGKERELVAAISSIGGSTYYADSVKGRFTISRDNAKNTVYLQMNSLKPEDTAVYYCAATSDSSLYVYWGQGTQVTVSS”, “low polyreactivity”; with “QVQLVESGGGLVQAGGSLRLSCAASGSTFEKNAMGWYRQAPGKERELVAAISNGVSTYYADSVKGRFTISRDNAKNTVYLQMNSLKPEDTAVYYCAADLFFGAETVYYDKFDYWGQGTQVTVSS”, “low polyreactivity”.

For the sequence “QVQLVESGGGLVQAGGSLRLSCAASGSTFENNVMGWYRQAPGKERELVATITWGDGSTSYADSVKGRFTISRDNAKNTVYLQMNSLKPEDTAVYYCAADDRIGYGKNKDHDYWGQGTQVTVSS”, the “polyreactivity (PSR sort gate)” value was “low polyreactivity”.
